Test results from US20230250176A1.

Assays:
[1] = molecular target: purified recombinant human FcγRIIa H131 (human) (UniProt P12318); assay: SPR (Biacore 8K), 25 C
[2] = molecular target: purified recombinant human FcγRI (human) (UniProt P12314); assay: SPR (Biacore 8K), 25 C

Sequence of purified recombinant human FcγRIIa H131 (human) (P12318 36-218 limits assumed): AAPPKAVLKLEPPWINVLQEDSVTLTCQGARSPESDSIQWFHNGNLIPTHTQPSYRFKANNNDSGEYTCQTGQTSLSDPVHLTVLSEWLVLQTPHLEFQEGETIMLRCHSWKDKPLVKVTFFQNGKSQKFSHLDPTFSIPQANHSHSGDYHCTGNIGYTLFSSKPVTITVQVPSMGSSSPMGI

panitumumab (antibody)
Kd [1]: 1100 nM

cetuximab (antibody)
Kd [2]: 7.3 nM
